Target: the molecule itself
Experiment: non-reducing SDS-PAGE and Western blot; isolated mitochondria dissolved in cracking buffer (0.06 M Tris-HCl pH 6.8, 2.5% SDS, 5% sucrose) without β-mercaptoethanol; anti-HA blot; disulphide-bonded form at about 100 kDa

B1: Mmm1-HA (N. crassa Mmm1 with a C-terminal triple hemaglutinin epitope tag) (natural protein, Neurospora crassa, UniProt Q9P353 1-415, looked up)
chain: MADICPSRSEPTLSFTQGLILGQLSVVLLLAAFIKFFIFGDPPSPEVVASIRATDRRSRTLAHKKSILSLRETNALQLVQNPALNKKHVLRPGPPILTIGSILSKTYYKVDSHQPESLDWFNVLIAQTIAQFRSDAQHDDAILSSLSKALNGTARPDFLDEIKVTELSLGEDFPIFSNCRIIPVDEDGLSFGTGKAFDANMATREGARLQARMDVDLSDMITLAVETKLLLNYPKRLSAVLPVALAVSVVRFSGTLSISFIPSNPSNNEPAKMIFTFLDDYRLDFSIRSLLGSRSRLQDVPKIAQLVESRLHRWFDERCVEPRFQEIALPNMWPRKKNTRGGDETISDVERSMSKAKGVDIAKDVREEARKEIEAEAHGGADRVPDSLRYRHRPRADEEFPGAGSMPGSMPGSMP
notes: Mmm1, Neurospora crassa; also called HA-tagged Mmm1; Mmm1-HA3; source: N. crassa Δmmm1 transformed with pMmm1-HA (endogenous mmm1 promoter; strains Mmm1-HA3, Mmm1-HA5, Mmm1-HA8), in isolated mitochondria or post mitochondrial pellet; not shown: 3xHA, C-terminal, kept
  stoichiometry N: 2

From paper PMC3733929, “Analysis of Mutations in Neurospora crassa ERMES Components Reveals Specific Functions Related to β-Barrel Protein Assembly and Maintenance of Mitochondrial Morphology” (PLoS ONE, 2013)
